Experiment [1] addresses T1, recombinant human FRα protein (Sino Biological cat #11241-H08H) (human, UniProt P15328 25-233).
T1 construct: Bought recombinant protein; also called human folate receptor alpha; FOLR1
Put plainly: SPR Biacore T200, antibody captured, recombinant human FRα as analyte, 1:1 model; the filing attributes it to an increased kd with a similar ka. The method, then:
(§1) Surface plasmon resonance (SPR) experiments are performed on a Biacore T200 apparatus, at 25° C. Tested antibody or ADC are captured at low density (300-500 RU) on a CM5 series S sensorchip, beforehand functionalized with a Human Antibody Capture kit (Cytiva cat #BR100839). A functionalized surface/flow cell treated similarly but omitting ligand is used as reference. […] The dissociation phase is measured by injection of running buffer for 900 sec. Between duplicates, surfaces/flow cells are regenerated with 3M MgCl₂ to remove both analyte and ligand, and fresh ligand capture are done using identical conditions. The data analysis is performed using the Biacore Evaluation software after subtraction of reference surface and analyte zero-concentration signals. Data are processed and fit to a 1:1 binding model to determine the binding kinetic rate constants, kₐ (on-rate) and kd (off-rate), and the KD (equilibrium dissociation constant, also referred to as “affinity”). Mean values and standard deviations over replicates are reported.
Surface plasmon resonance (SPR) experiments were performed on a Biacore T200 apparatus, at 25° C. Tested antibody or ADC were captured at low density (300-500 RU) on a CM5 series S sensorchip, beforehand functionalized with a Human Antibody Capture kit (Cytiva cat #BR100839). […] The dissociation phase was measured by injection of running buffer for 900 sec. […]

In experiment [2] the target is T1, recombinant human FRα protein (Sino …). Put plainly: SPR, Biacore T200, 25 °C: antibody or ADC captured with Human Antibody Capture kit on CM5 chip, recombinant human FRα as analyte (0.5-8 nM), single cycle kinetics, 1:1 model, mean over replicates. The method, then:
as §1
(§2) Surface plasmon resonance (SPR) experiments were performed on a Biacore T200 apparatus, at 25° C. Tested antibody or ADC were captured at low density (300-500 RU) on a CM5 series S sensorchip, beforehand functionalized with a Human Antibody Capture kit (Cytiva cat #BR100839). A functionalized surface/flow cell treated similarly but omitting ligand was used as reference. […] The dissociation phase was measured by injection of running buffer for 900 sec. Between duplicates, surfaces/flow cells were regenerated with 3M MgCl₂ to remove both analyte and ligand, and fresh ligand capture were done using identical conditions.
A general note: SPR reads the build-up and loss of mass on a sensor chip optically.

The target is the same in experiment [3]. Description: SPR, Biacore T200, 25 °C: antibody or ADC captured with Human Antibody Capture kit on CM5 chip, recombinant human FRα as analyte (0.5-8 nM), single cycle kinetics, 1:1 model, KD calculated as kd/ka. The method, then:
as §1, §2

For experiment [4] the target is unchanged. Description: ELISA: plate coated with recombinant human FRα (2 µg/mL), threefold dilution series of the antibody or ADC, goat anti-human IgG-HRP, normalized A450; x axis printed as [Recombinant FRa] (M) with log10 values. The method, then:
(§3) Sandwich ELISA assays are performed using 96-well high-binding ELISA plates (Corning Inc., New York, NY, USA, Cat #3590). Plates are coated using 100 µL/well of recombinant human FRα protein (Sino Biological cat #11241-H08H) in PBS (pH 7.4) at 2 μg/mL and incubated overnight at 4° C. After 2 washes with PBS-T (PBS+0.05% Tween-20), the plates are blocked with 200 μL/well of incubation buffer (PBS-T+0.1% BSA) for 1 h at room temperature. The plates are washed 4 times with PBS-T, and 100 μL of a threefold dilution series of tested compound (antibody or antibody-drug conjugate) is added. Then, the plates are incubated for 2 h at room temperature in the dark. After 5 washes with PBS-T, plates are incubated 1 h at room temperature with 100 μL/well of a goat anti-human IgG (H+L) HRP conjugated antibody (Jackson Immunoresearch cat #109-035-088), previously diluted 1:250000 in incubation buffer. After 5 washes with PBS-T, TMB substrate solution (Thermo-Fisher cat #N301) is added. […] Sigmoidal fittings were performed using GraphPad Prism 9 software.
Sandwich ELISA assays were performed using 96-well high-binding ELISA plates (Corning Inc., New York, NY, USA, Cat #3590). Plates were coated using 100 μL/well of recombinant human FRα protein (Sino Biological cat #11241-H08H); recombinant cynomolgus FRα protein (Sino Biological cat #90950-C08H); recombinant rat FRα protein (Sino Biological cat #81073-R08H) or recombinant mouse FRα protein (Sino Biological cat #50573-M08H) in PBS (pH 7.4) at 2 μg/mL and incubated overnight at 4° C. After 2 washes with PBS-T (PBS+0.05% Tween-20), the plates were blocked with 200 μL/well of incubation buffer (PBS-T+0.1% BSA) for 1 h at room temperature. The plates were washed 4 times with PBS-T, and 100 μL of a threefold dilution series of tested compound (antibody or antibody-drug conjugate) was added. Then, the plates were incubated for 2 h at room temperature in the dark. After 5 washes with PBS-T, plates were incubated 1 h at room temperature with 100 μL/well of a goat anti-human IgG (H+L) HRP conjugated antibody (Jackson Immunoresearch cat #109-035-088), previously diluted 1:250000 in incubation buffer.
(ELISA stands for enzyme-linked immunosorbent assay.)

Experiment [5] addresses T2, recombinant rat FRα protein (Sino Biological cat #81073-R08H) (rat, UniProt G3V8M6 25-232).
T2 construct: Bought; also called rat recombinant FRα protein
Put plainly: ELISA: plate coated with recombinant rat FRα (2 µg/mL), threefold dilution series of F-LALA-VA-EXA, goat anti-human IgG-HRP, A450; x axis printed as [Recombinant FRa] (M) with log10 values. The method, then: (§4) Sandwich ELISA assays were performed using 96-well high-binding ELISA plates (Corning Inc., New York, NY, USA, Cat #3590). Plates were coated using 100 μL/well of recombinant human FRα protein (Sino Biological cat #11241-H08H); recombinant cynomolgus FRα protein (Sino Biological cat #90950-C08H); recombinant rat FRα protein (Sino Biological cat #81073-R08H) or recombinant mouse FRα protein (Sino Biological cat #50573-M08H) in PBS (pH 7.4) at 2 μg/mL and incubated overnight at 4° C. After 2 washes with PBS-T (PBS+0.05% Tween-20), the plates were blocked with 200 μL/well of incubation buffer (PBS-T+0.1% BSA) for 1 h at room temperature. The plates were washed 4 times with PBS-T, and 100 μL of a threefold dilution series of tested compound (antibody or antibody-drug conjugate) was added. Then, the plates were incubated for 2 h at room temperature in the dark. After 5 washes with PBS-T, plates were incubated 1 h at room temperature with 100 μL/well of a goat anti-human IgG (H+L) HRP conjugated antibody (Jackson Immunoresearch cat #109-035-088), previously diluted 1:250000 in incubation buffer. After 5 washes with PBS-T, TMB substrate solution (Thermo-Fisher cat #N301) was added. […] Sigmoidal fittings were performed using GraphPad Prism 9 software.

The target of experiment [6] is T1, recombinant human FRα protein (Sino …). Put plainly: ELISA: plate coated with recombinant human FRα (2 µg/mL), threefold dilution series of F-LALA-VA-EXA, goat anti-human IgG-HRP, A450; x axis printed as [Recombinant FRa] (M) with log10 values. The method, then:
as §3
Sandwich ELISA assays were performed using 96-well high-binding ELISA plates (Corning Inc., New York, NY, USA, Cat #3590). […]

The target of experiment [7] is T3, recombinant mouse FRα protein (Sino Biological cat #50573-M08H) (mouse, UniProt P35846 25-232).
T3 construct: Bought; also called mouse recombinant FRα protein
T3 sequence (P35846 25-232 limits assumed, stated change not applied): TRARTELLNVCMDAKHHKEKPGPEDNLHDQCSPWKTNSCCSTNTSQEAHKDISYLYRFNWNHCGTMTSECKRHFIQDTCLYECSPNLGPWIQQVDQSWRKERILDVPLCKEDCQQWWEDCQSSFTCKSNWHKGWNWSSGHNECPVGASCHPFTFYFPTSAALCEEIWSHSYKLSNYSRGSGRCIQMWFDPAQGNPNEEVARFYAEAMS
Description: ELISA: plate coated with recombinant mouse FRα (2 µg/mL), threefold dilution series of F-LALA-VA-EXA, goat anti-human IgG-HRP, A450; x axis printed as [Recombinant FRa] (M) with log10 values. The method, then: as §4

Experiment [8] has as its target T4, recombinant cynomolgus FRα protein (Sino Biological cat #90950-C08H) (cynomolgus, UniProt A0A2K5U044 25-234).
T4 construct: Bought; also called cynomolgus recombinant FRα protein
Put plainly: ELISA: plate coated with recombinant cynomolgus FRα (2 µg/mL), threefold dilution series of F-LALA-VA-EXA, goat anti-human IgG-HRP, A450; x axis printed as [Recombinant FRa] (M) with log10 values. The method, then: as §4

T1 sequence (P15328 25-233 limits assumed): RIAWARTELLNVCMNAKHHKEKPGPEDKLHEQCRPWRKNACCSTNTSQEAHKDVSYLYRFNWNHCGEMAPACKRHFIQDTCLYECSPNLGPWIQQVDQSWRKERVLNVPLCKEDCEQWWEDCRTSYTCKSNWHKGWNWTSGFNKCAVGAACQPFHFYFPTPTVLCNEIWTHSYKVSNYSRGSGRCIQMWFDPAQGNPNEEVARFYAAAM
T4 sequence (A0A2K5U044 entry or part of it C08H C08H): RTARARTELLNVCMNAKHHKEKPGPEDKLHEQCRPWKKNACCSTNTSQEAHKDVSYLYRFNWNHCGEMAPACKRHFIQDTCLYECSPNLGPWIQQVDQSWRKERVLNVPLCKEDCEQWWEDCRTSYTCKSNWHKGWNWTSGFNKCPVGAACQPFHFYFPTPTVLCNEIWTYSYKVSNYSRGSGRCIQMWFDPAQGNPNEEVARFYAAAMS
T2 sequence (G3V8M6 entry or part of it R08H R08H limits assumed): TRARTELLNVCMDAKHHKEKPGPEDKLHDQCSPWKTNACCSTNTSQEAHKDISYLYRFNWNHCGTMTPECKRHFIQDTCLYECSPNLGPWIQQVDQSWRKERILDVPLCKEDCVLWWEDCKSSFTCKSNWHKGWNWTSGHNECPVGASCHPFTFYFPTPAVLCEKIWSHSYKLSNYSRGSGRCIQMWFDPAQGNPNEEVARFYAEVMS

B1: farletuzumab (antibody, human IgG1, kappa)
heavy: not shown
light: DIQLTQSPSSLSASVGDRVTITCSVSSSISSNNLHWYQQKPGKAPKPWIYGTSNLASGVPSRFSGSGSGTDYTFTISSLQPEDIATYYCQQWSSYPYMYTFGQGTKVEIKRTVAAPSVFIFPPSDEQLKSGTASVVCLLNNFYPREAKVQWKVDNALQSGNSQESVTEQDSKDSTYSLSSTLTLSKADYEKHKVYACEVTHQGLSSPVTKSFNRGEC
notes: Human IgG1, made in CHO K1 cells; also called mAb2; native farletuzumab
The term koff denotes the first-order rate constant of dissociation. Usually kon stands for the second-order rate constant of association. As usually defined, the Kd is the free concentration of one partner at which half of the binding sites on the other are occupied at equilibrium, for simple one-to-one binding. In general, EC50 (read off the curve) refers to the concentration needed to bring the measured effect to its halfway point. Take B1: in experiment [1], the “fold change of KD against mirvetuximab and mirvetuximab-based constructs” value was roughly 10 fold. Moreover, in experiment [2], the koff is 0.0361 s⁻¹ and the kon stood at 1.9e+06 M⁻¹ s⁻¹. Moreover, the Kd in experiment [3] is 25.1 nM. Moreover, the “EC50 (read off the curve)” value in experiment [4] is roughly 100 pM.

B2: F-VA-EXA (antibody, human IgG1, kappa)
heavy chain: not shown
light chain: DIQLTQSPSSLSASVGDRVTITCSVSSSISSNNLHWYQQKPGKAPKPWIYGTSNLASGVPSRFSGSGSGTDYTFTISSLQPEDIATYYCQQWSSYPYMYTFGQGTKVEIKRTVAAPSVFIFPPSDEQLKSGTASVVCLLNNFYPREAKVQWKVDNALQSGNSQESVTEQDSKDSTYSLSSTLTLSKADYEKHKVYACEVTHQGLSSPVTKSFNRGEC
modifications: interchain cysteine thiol conjugated to drug-linker LNK4-S, DAR 8; interchain cysteine thiols conjugated to drug-linker LNK4-S (Val-Ala-exatecan, polysarcosine), DAR 8
Take B2: in experiment [2], the koff was 0.0306 s⁻¹ and the kon worked out at 1e+06 M⁻¹ s⁻¹. Moreover, the Kd in experiment [3] was 30.9 nM. Further, the half-maximal effective concentration (EC50 (read off the curve)) in experiment [4] is roughly 100 pM.

B3: F-LALA-VA-EXA (antibody, human IgG1, kappa, L234A L235A)
heavy: not shown
light: DIQLTQSPSSLSASVGDRVTITCSVSSSISSNNLHWYQQKPGKAPKPWIYGTSNLASGVPSRFSGSGSGTDYTFTISSLQPEDIATYYCQQWSSYPYMYTFGQGTKVEIKRTVAAPSVFIFPPSDEQLKSGTASVVCLLNNFYPREAKVQWKVDNALQSGNSQESVTEQDSKDSTYSLSSTLTLSKADYEKHKVYACEVTHQGLSSPVTKSFNRGEC
modifications: drug-linker LNK4-S on the interchain cysteine thiol, 1 per light chain (LC-1d); drug-linker LNK4-S (Val-Ala-exatecan with polysarcosine) on interchain cysteine thiols, 3 per heavy chain (HC-3d); DAR …
notes: Antibody-drug conjugate
For the molecule B3, the binding result in experiment [5] and in experiment [7] was “no binding” throughout. Also, the “EC50 (read off the curve)” value in experiment [6], in experiment [8] and in experiment [4] was roughly 100 pM throughout. For the same molecule, in experiment [2], the koff was 0.0368 s⁻¹. Besides, the kon in experiment [2] worked out at 1.33e+06 M⁻¹ s⁻¹. The equilibrium dissociation constant (Kd) in experiment [3] was 27.8 nM.

B4: farletuzumab-LALA (antibody, human IgG1, kappa, L234A L235A)
heavy: not shown
light: DIQLTQSPSSLSASVGDRVTITCSVSSSISSNNLHWYQQKPGKAPKPWIYGTSNLASGVPSRFSGSGSGTDYTFTISSLQPEDIATYYCQQWSSYPYMYTFGQGTKVEIKRTVAAPSVFIFPPSDEQLKSGTASVVCLLNNFYPREAKVQWKVDNALQSGNSQESVTEQDSKDSTYSLSSTLTLSKADYEKHKVYACEVTHQGLSSPVTKSFNRGEC
notes: also called mAb1; Fc-silent farletuzumab-LALA
B4: the “fold change of KD against mirvetuximab and mirvetuximab-based constructs” value in experiment [1] was roughly 10 fold. Moreover, in experiment [2], the koff was found to be 0.0321 s⁻¹ and the kon is 1.34e+06 M⁻¹ s⁻¹. In addition, the dissociation constant (Kd) in experiment [3] was 25.5 nM. For the same molecule, the “EC50 (read off the curve)” value in experiment [4] is roughly 100 pM.

B5: mirvetuximab (antibody, human IgG1, kappa, V domains shown)
VH: QVQLVQSGAEVVKPGASVKISCKASGYTFTGYFMNWVKQSPGQSLEWIGRIHPYDGDTFYNQKFQGKATLTVDKSSNTAHMELLSLTSEDFAVYYCTRYDGSRAMDYWGQGTTVTVSS
VL: DIVLTQSPLSLAVSLGQPAIISCKASQSVSFAGTSLMHWYHQKPGQQPRLLIYRASNLEAGVPDRFSGSGSKTDFTLTISPVEAEDAATYYCQQSREYPYTFGGGTKLEIKR
notes: also called native mirvetuximab
B5: in experiment [2], the koff came to 0.000244 s⁻¹ and the association rate constant (kon) was 1.15e+06 M⁻¹ s⁻¹. The Kd in experiment [3] is 0.211 nM. In addition, the “EC50 (read off the curve)” value in experiment [4] was roughly 200 pM.

B6: M-SORAV (antibody, human IgG1, kappa, V domains shown)
VH: QVQLVQSGAEVVKPGASVKISCKASGYTFTGYFMNWVKQSPGQSLEWIGRIHPYDGDTFYNQKFQGKATLTVDKSSNTAHMELLSLTSEDFAVYYCTRYDGSRAMDYWGQGTTVTVSS
VL: DIVLTQSPLSLAVSLGQPAIISCKASQSVSFAGTSLMHWYHQKPGQQPRLLIYRASNLEAGVPDRFSGSGSKTDFTLTISPVEAEDAATYYCQQSREYPYTFGGGTKLEIKR
modifications: sulfo-SPDB-DM4 stochastically conjugated to lysines; average DAR 3.35 for the whole antibody
notes: Antibody-drug conjugate; also called ADC derivative of mirvetuximab; mirvetuximab soravtansine comparator
As to B6, in experiment [2], the koff stood at 0.000327 s⁻¹ and the kon came out at 1.26e+06 M⁻¹ s⁻¹. Besides, in experiment [3], the Kd is 0.26 nM. Moreover, the “EC50 (read off the curve)” value in experiment [4] was roughly 300 pM.

These data come from patent US20260232826A1 (MABLINK BIOSCIENCE, published 2026).
